The values that follow come from publication PMC4860839, “Structures of the APC–ARM domain in complexes with discrete Amer1/WTX fragments reveal that it uses a consensus mode to recognize its binding partners” (Cell Discovery, 2015).

B1: pBTM-APC–ARM (residues 308–789), two-hybrid bait [human] / Amer1-A1 (murine, residues 279–367), two-hybrid prey [murine] (parent complex)
chain 1: LGTKVEMVYSLLSMLGTHDKDDMSRTLLAMSSSQDSCISMRQSGCLPLLIQLLHGNDKDSVLLGNSRGSKEARARASAALHNIIHSQPDDKRGRREIRVLHLLEQIRAYCETCWEWQEAHEPGMDQDKNPMPAPVEHQICPAVCVLMKLSFDEEHRHAMNELGGLQAIAELLQVDCEMYGLTNDHYSITLRRYAGMALTNLTFGDVANKATLCSMKGCMRALVAQLKSESEDLQQVIASVLRNLSWRADVNSKKTLREVGSVKALMECALEVKKESTLKSVLSALWNLSAHCTENKADICAVDGALAFLVGTLTYRSQTNTLAIIESGGGILRNVSSLIATNEDHRQILRENNCLQTLLQHLKSHSLTIVSNACGTLWNLSARNPKDQEALWDMGAVSMLKNLIHSKHKMIAMGSAAALRNLMANRPAKYKDANIMSPGSSLPSLHVRKQKALEAELDAQHLSETFDNIDNLSPKASHRSKQ
chain 2: SLEEPHTSETEGKVVAGEVNPPNGPVGDQLSLLFGDVTSLKSFDSLTGCGDIIAEQDMDSMTDSMASGGQRANRDGTKRSSCLVTYQGG
B2: pBTM-APC–ARM (residues 308–789), two-hybrid bait [human] / Amer1-A4 (human, residues 337–455), two-hybrid prey [human] (parent complex)
chain 1: B1 chain 1
chain 2: MDSMTDSMASGGQRANRDGTKRSSCLVTYQGGGEEMALPDDDDEEEEEEEEVELEEEEEEVKEEEEDDDLEYLWETAQMYPRPNMNLGYHPTTSPGHHGYMLLDPVRSYPGLAPGELLT

In one test the parent is B1. Put plainly: yeast two-hybrid assay (relative β-galactosidase reporter activity); parent: 100.
On to chain 1 LGTKVEMVYSLLSMLGTHDKDDMSRTLLAMSSSQDSCISMRQSGCLPLLIQLLHGNDKDSVLLGNSRGSKEARARASAALHNIIHSQPDDKRGRREIRVLHLLEQIRAYCETCWEWQEAHEPGMDQDKNPMPAPVEHQICPAVCVLMKLSFDEEHRHAMNELGGLQAIAELLQVDCEMYGLTNDHYSITLRRYAGMALTNLTFGDVANKATLCSMKGCMRALVAQLKSESEDLQQVIASVLRKLSWRADVNSKKTLREVGSVKALMECALEVKKESTLKSVLSALWNLSAHCTENKADICAVDGALAFLVGTLTYRSQTNTLAIIESGGGILRNVSSLIATNEDHRQILRENNCLQTLLQHLKSHSLTIVSNACGTLWNLSARNPKDQEALWDMGAVSMLKNLIHSKHKMIAMGSAAALRNLMANRPAKYKDANIMSPGSSLPSLHVRKQKALEAELDAQHLSETFDNIDNLSPKASHRSKQ [chain 1 N243K], for which the percent of parent worked out at 0.38%. Regarding chain 1 LGTKVEMVYSLLSMLGTHDKDDMSRTLLAMSSSQDSCISMRQSGCLPLLIQLLHGNDKDSVLLGNSRGSKEARARASAALHNIIHSQPDDKRGRREIRVLHLLEQIRAYCETCWEWQEAHEPGMDQDKNPMPAPVEHQICPAVCVLMKLSFDEEHRHAMNELGGLQAIAELLQVDCEMYGLTNDHYSITLRRYAGMALTNLTFGDVANKATLCSMKGCMRALVAQLKSESEDLQQVIASVLRNLSWRADVNSKKTLREVGSVKALMECALEVKKESTLKSVLSALWNLSAHCTENKADICAVDGALAFLVGTLTYRSQTNTLAIIESGGGILRNVSSLIATNEDHRQILRENNCLQTLLQHLKSHSLTIVSNACGTLWNLSARNPKDQEALWDMGAVSMLKNLIHSKHKMIAMGSAAALENLMANRPAKYKDANIMSPGSSLPSLHVRKQKALEAELDAQHLSETFDNIDNLSPKASHRSKQ [chain 1 R420E], the percent of parent is 41.3%. As for chain 1 LGTKVEMVYSLLSMLGTHDKDDMSRTLLAMSSSQDSCISMRQSGCLPLLIQLLHGNDKDSVLLGNSRGSKEARARASAALHNIIHSQPDDKRGRREIRVLHLLEQIRAYCETCWEWQEAHEPGMDQDKNPMPAPVEHQICPAVCVLMKLSFDEEHRHAMNELGGLQAIAELLQVDCEMYGLTNDHYSITLRRYAGMALTNLTFGDVANKATLCSMKGCMRALVAQLKSESEDLQQVIASVLRNLSWRADVNSKKTLREVGSVKALMECALEVKKESTLKSVLSALWNLSAHCTENKADICAVDGALAFLVGTLTYRSQTNTLAIIESGGGILRNVSSLIATNEDHRQILRENNCLQTLLQHLKSHSLTIVSNACGTLWNLSARNPKDQEALWDMGAVSMLKNLIHSKHKKIAMGSAAALRNLMANRPAKYKDANIMSPGSSLPSLHVRKQKALEAELDAQHLSETFDNIDNLSPKASHRSKQ [chain 1 M410K], the percent of parent was determined as 33.7%. On the same count and under the same terms, the same measure for chain 1 LGTKVEMVYSLLSMLGTHDKDDMSRTLLAMSSSQDSCISMRQSGCLPLLIQLLHGNDKDSVLLGNSRGSKEARARASAALHNIIHSQPDDKRGRREIRVLHLLEQIRAYCETCWEWQEAHEPGMDQDKNPMPAPVEHQICPAVCVLMKLSFDEEHRHAMNELGGLQAIAELLQVDCEMYGLTNDHYSITLRRYAGMALTNLTFGDVANKATLCSMKGCMRALVAQLKSESEDLQQVIASVLENLSWRADVNSKKTLREVGSVKALMECALEVKKESTLKSVLSALWNLSAHCTENKADICAVDGALAFLVGTLTYRSQTNTLAIIESGGGILRNVSSLIATNEDHRQILRENNCLQTLLQHLKSHSLTIVSNACGTLWNLSARNPKDQEALWDMGAVSMLKNLIHSKHKMIAMGSAAALRNLMANRPAKYKDANIMSPGSSLPSLHVRKQKALEAELDAQHLSETFDNIDNLSPKASHRSKQ [chain 1 R242E]: 1.48%.

As to chain 1 LGTKVEMVYSLLSMLGTHDKDDMSRTLLAMSSSQDSCISMRQSGCLPLLIQLLHGNDKDSVLLGNSRGSKEARARASAALHNIIHSQPDDKRGRREIRVLHLLEQIRAYCETCWEWQEAHEPGMDQDKNPMPAPVEHQICPAVCVLMKLSFDEEHRHAMNELGGLQAIAELLQVDCEMYGLTNDHYSITLRRYAGMALTNLTFGDVANEATLCSMKGCMRALVAQLKSESEDLQQVIASVLRNLSWRADVNSKKTLREVGSVKALMECALEVKKESTLKSVLSALWNLSAHCTENKADICAVDGALAFLVGTLTYRSQTNTLAIIESGGGILRNVSSLIATNEDHRQILRENNCLQTLLQHLKSHSLTIVSNACGTLWNLSARNPKDQEALWDMGAVSMLKNLIHSKHKMIAMGSAAALRNLMANRPAKYKDANIMSPGSSLPSLHVRKQKALEAELDAQHLSETFDNIDNLSPKASHRSKQ [chain 1 K209E], the percent of parent stood at 0.09%. chain 1 LGTKVEMVYSLLSMLGTHDKDDMSRTLLAMSSSQDSCISMRQSGCLPLLIQLLHGNDKDSVLLGNSRGSKEARARASAALHNIIHSQPDDKRGRREIRVLHLLEQIRAYCETCWEWQEAHEPGMDQDKNPMPAPVEHQICPAVCVLMKLSFDEEHRHAMNELGGLQAIAELLQVDCEMYGLTNDHYSITLRRYAGMALTKLTFGDVANKATLCSMKGCMRALVAQLKSESEDLQQVIASVLRNLSWRADVNSKKTLREVGSVKALMECALEVKKESTLKSVLSALWNLSAHCTENKADICAVDGALAFLVGTLTYRSQTNTLAIIESGGGILRNVSSLIATNEDHRQILRENNCLQTLLQHLKSHSLTIVSNACGTLWNLSARNPKDQEALWDMGAVSMLKNLIHSKHKMIAMGSAAALRNLMANRPAKYKDANIMSPGSSLPSLHVRKQKALEAELDAQHLSETFDNIDNLSPKASHRSKQ [chain 1 N200K]: the percent of parent was 1.86%.

In another test the parent is B2. Described as above.
In the case of chain 1 LGTKVEMVYSLLSMLGTHDKDDMSRTLLAMSSSQDSCISMRQSGCLPLLIQLLHGNDKDSVLLGNSRGSKEARARASAALHNIIHSQPDDKRGRREIRVLHLLEQIRAYCETCWEWQEAHEPGMDQDKNPMPAPVEHQICPAVCVLMKLSFDEEHRHAMNELGGLQAIAELLQVDCEMYGLTNDHYSITLRRYAGMALTNLTFGDVANEATLCSMKGCMRALVAQLKSESEDLQQVIASVLRNLSWRADVNSKKTLREVGSVKALMECALEVKKESTLKSVLSALWNLSAHCTENKADICAVDGALAFLVGTLTYRSQTNTLAIIESGGGILRNVSSLIATNEDHRQILRENNCLQTLLQHLKSHSLTIVSNACGTLWNLSARNPKDQEALWDMGAVSMLKNLIHSKHKMIAMGSAAALRNLMANRPAKYKDANIMSPGSSLPSLHVRKQKALEAELDAQHLSETFDNIDNLSPKASHRSKQ [chain 1 K209E], the percent of parent was determined as 3.93%. Same read-out and setting: to chain 1 LGTKVEMVYSLLSMLGTHDKDDMSRTLLAMSSSQDSCISMRQSGCLPLLIQLLHGNDKDSVLLGNSRGSKEARARASAALHNIIHSQPDDKRGRREIRVLHLLEQIRAYCETCWEWQEAHEPGMDQDKNPMPAPVEHQICPAVCVLMKLSFDEEHRHAMNELGGLQAIAELLQVDCEMYGLTNDHYSITLRRYAGMALTKLTFGDVANKATLCSMKGCMRALVAQLKSESEDLQQVIASVLRNLSWRADVNSKKTLREVGSVKALMECALEVKKESTLKSVLSALWNLSAHCTENKADICAVDGALAFLVGTLTYRSQTNTLAIIESGGGILRNVSSLIATNEDHRQILRENNCLQTLLQHLKSHSLTIVSNACGTLWNLSARNPKDQEALWDMGAVSMLKNLIHSKHKMIAMGSAAALRNLMANRPAKYKDANIMSPGSSLPSLHVRKQKALEAELDAQHLSETFDNIDNLSPKASHRSKQ [chain 1 N200K] belongs 0.28%; to chain 1 LGTKVEMVYSLLSMLGTHDKDDMSRTLLAMSSSQDSCISMRQSGCLPLLIQLLHGNDKDSVLLGNSRGSKEARARASAALHNIIHSQPDDKRGRREIRVLHLLEQIRAYCETCWEWQEAHEPGMDQDKNPMPAPVEHQICPAVCVLMKLSFDEEHRHAMNELGGLQAIAELLQVDCEMYGLTNDHYSITLRRYAGMALTNLTFGDVANKATLCSMKGCMRALVAQLKSESEDLQQVIASVLRNLSWRADVNSKKTLREVGSVKALMECALEVKKESTLKSVLSALWNLSAHCTENKADICAVDGALAFLVGTLTYRSQTNTLAIIESGGGILRNVSSLIATNEDHRQILRENNCLQTLLQHLKSHSLTIVSNACGTLWNLSARNPKDQEALWDMGAVSMLKNLIHSKHKKIAMGSAAALRNLMANRPAKYKDANIMSPGSSLPSLHVRKQKALEAELDAQHLSETFDNIDNLSPKASHRSKQ [chain 1 M410K], 28.1%. In the case of chain 1 LGTKVEMVYSLLSMLGTHDKDDMSRTLLAMSSSQDSCISMRQSGCLPLLIQLLHGNDKDSVLLGNSRGSKEARARASAALHNIIHSQPDDKRGRREIRVLHLLEQIRAYCETCWEWQEAHEPGMDQDKNPMPAPVEHQICPAVCVLMKLSFDEEHRHAMNELGGLQAIAELLQVDCEMYGLTNDHYSITLRRYAGMALTNLTFGDVANKATLCSMKGCMRALVAQLKSESEDLQQVIASVLENLSWRADVNSKKTLREVGSVKALMECALEVKKESTLKSVLSALWNLSAHCTENKADICAVDGALAFLVGTLTYRSQTNTLAIIESGGGILRNVSSLIATNEDHRQILRENNCLQTLLQHLKSHSLTIVSNACGTLWNLSARNPKDQEALWDMGAVSMLKNLIHSKHKMIAMGSAAALRNLMANRPAKYKDANIMSPGSSLPSLHVRKQKALEAELDAQHLSETFDNIDNLSPKASHRSKQ [chain 1 R242E], the percent of parent came to 0.84%.

As for chain 1 LGTKVEMVYSLLSMLGTHDKDDMSRTLLAMSSSQDSCISMRQSGCLPLLIQLLHGNDKDSVLLGNSRGSKEARARASAALHNIIHSQPDDKRGRREIRVLHLLEQIRAYCETCWEWQEAHEPGMDQDKNPMPAPVEHQICPAVCVLMKLSFDEEHRHAMNELGGLQAIAELLQVDCEMYGLTNDHYSITLRRYAGMALTNLTFGDVANKATLCSMKGCMRALVAQLKSESEDLQQVIASVLRNLSWRADVNSKKTLREVGSVKALMECALEVKKESTLKSVLSALWNLSAHCTENKADICAVDGALAFLVGTLTYRSQTNTLAIIESGGGILRNVSSLIATNEDHRQILRENNCLQTLLQHLKSHSLTIVSNACGTLWNLSARNPKDQEALWDMGAVSMLKNLIHSKHKMIAMGSAAALENLMANRPAKYKDANIMSPGSSLPSLHVRKQKALEAELDAQHLSETFDNIDNLSPKASHRSKQ [chain 1 R420E], the percent of parent was found to be 132%.

Regarding chain 1 LGTKVEMVYSLLSMLGTHDKDDMSRTLLAMSSSQDSCISMRQSGCLPLLIQLLHGNDKDSVLLGNSRGSKEARARASAALHNIIHSQPDDKRGRREIRVLHLLEQIRAYCETCWEWQEAHEPGMDQDKNPMPAPVEHQICPAVCVLMKLSFDEEHRHAMNELGGLQAIAELLQVDCEMYGLTNDHYSITLRRYAGMALTNLTFGDVANKATLCSMKGCMRALVAQLKSESEDLQQVIASVLRKLSWRADVNSKKTLREVGSVKALMECALEVKKESTLKSVLSALWNLSAHCTENKADICAVDGALAFLVGTLTYRSQTNTLAIIESGGGILRNVSSLIATNEDHRQILRENNCLQTLLQHLKSHSLTIVSNACGTLWNLSARNPKDQEALWDMGAVSMLKNLIHSKHKMIAMGSAAALRNLMANRPAKYKDANIMSPGSSLPSLHVRKQKALEAELDAQHLSETFDNIDNLSPKASHRSKQ [chain 1 N243K], the percent of parent turned out to be 0.28%.
